{"source": "the Human Domainome abundance scans (Beltran et al. 2025)", "parents": {"B1": {"name": "Advillin, residues 785 to 819; numbered along this chain, O75366 (parent)", "chain": "LSEQDFVSVFGITRGQFAALPGWKQLQMKKEKGLF"}}, "note": "± gives the uncertainty stated by the source.", "data": [{"variants_of": "B1", "assay": "abundance fitness (aPCA) (normalised: wild type 0, dead -1); higher = more abundant; growth selection in yeast, the domain comes from the species named", "conditions": "Homo sapiens", "values": [{"variant": "LSEQDFVSVFGITRGQFAALPAWKQLQMKKEKGLF", "abundance fitness": "-0.016 ± 0.083"}, {"variant": "LSEQDFVSVFGITRGQFAALPPWKQLQMKKEKGLF", "abundance fitness": "0.067 ± 0.065"}, {"variant": "LSEQDFVSVFGITRGQFAALPKWKQLQMKKEKGLF", "abundance fitness": "0.064 ± 0.073"}, {"variant": "LSEQDFVSVFGITRGQFAALPEWKQLQMKKEKGLF", "abundance fitness": "0.069 ± 0.079"}, {"variant": "LSEQDFVSVFGITRGQFAALPYWKQLQMKKEKGLF", "abundance fitness": "-0.093 ± 0.1"}, {"variant": "LSEQDFVSVFGITRGQFAALPFWKQLQMKKEKGLF", "abundance fitness": "-0.138 ± 0.079"}, {"variant": "LSEQDFVSVFGITRGQFAALPMWKQLQMKKEKGLF", "abundance fitness": "-0.084 ± 0.098"}, {"variant": "LSEQDFVSVFGITRGQFAALPRWKQLQMKKEKGLF", "abundance fitness": "-0.099 ± 0.062"}, {"variant": "LSEQDFVSVFGITRGQFAALPTWKQLQMKKEKGLF", "abundance fitness": "0.005 ± 0.086"}, {"variant": "LSEQDFVSVFGITRGQFAALPIWKQLQMKKEKGLF", "abundance fitness": "-0.162 ± 0.1"}, {"variant": "LSEQDFVSVFGITRGQFAALPSWKQLQMKKEKGLF", "abundance fitness": "-0.108 ± 0.078"}, {"variant": "LSEQDFVSVFGITRGQFAALPHWKQLQMKKEKGLF", "abundance fitness": "0.082 ± 0.15"}, {"variant": "LSEQDFVSVFGITRGQFAALPLWKQLQMKKEKGLF", "abundance fitness": "-0.074 ± 0.091"}, {"variant": "LSEQDFVSVFGITRGQFAALPQWKQLQMKKEKGLF", "abundance fitness": "0.01 ± 0.079"}, {"variant": "LSEQDFVSVFGITRGQFAALPCWKQLQMKKEKGLF", "abundance fitness": "-0.44 ± 0.16"}, {"variant": "LSEQDFVSVFGITRGQFAALPWWKQLQMKKEKGLF", "abundance fitness": "-0.405 ± 0.076"}, {"variant": "LSEQDFVSVFGITRGQFAALPVWKQLQMKKEKGLF", "abundance fitness": "-0.021 ± 0.082"}, {"variant": "LSEQDFVSVFGITRGQFAALPDWKQLQMKKEKGLF", "abundance fitness": "-0.104 ± 0.14"}, {"variant": "LSEQDFVSVFGITRGQFAALPNWKQLQMKKEKGLF", "abundance fitness": "-0.2 ± 0.11"}, {"variant": "LSEQDFVSVFGITRGQFAALPGWHQLQMKKEKGLF", "abundance fitness": "-0.61 ± 0.34"}, {"variant": "LSEQDFVSVFGITRGQFAALPGWNQLQMKKEKGLF", "abundance fitness": "-0.433 ± 0.23"}, {"variant": "LSEQDFVSVFGITRGQFAALPGWMQLQMKKEKGLF", "abundance fitness": "-0.098 ± 0.12"}, {"variant": "LSEQDFVSVFGITRGQFAALPGWPQLQMKKEKGLF", "abundance fitness": "-0.475 ± 0.12"}, {"variant": "LSEQDFVSVFGITRGQFAALPGWEQLQMKKEKGLF", "abundance fitness": "-0.142 ± 0.097"}, {"variant": "LSEQDFVSVFGITRGQFAALPGWGQLQMKKEKGLF", "abundance fitness": "-0.488 ± 0.089"}, {"variant": "LSEQDFVSVFGITRGQFAALPGWDQLQMKKEKGLF", "abundance fitness": "-0.143 ± 0.1"}, {"variant": "LSEQDFVSVFGITRGQFAALPGWFQLQMKKEKGLF", "abundance fitness": "-0.403 ± 0.16"}, {"variant": "LSEQDFVSVFGITRGQFAALPGWCQLQMKKEKGLF", "abundance fitness": "-0.342 ± 0.11"}, {"variant": "LSEQDFVSVFGITRGQFAALPGWQQLQMKKEKGLF", "abundance fitness": "-0.072 ± 0.086"}, {"variant": "LSEQDFVSVFGITRGQFAALPGWIQLQMKKEKGLF", "abundance fitness": "-0.148 ± 0.14"}, {"variant": "LSEQDFVSVFGITRGQFAALPGWRQLQMKKEKGLF", "abundance fitness": "-0.159 ± 0.066"}, {"variant": "LSEQDFVSVFGITRGQFAALKGWKQLQMKKEKGLF", "abundance fitness": "-0.413 ± 0.095"}, {"variant": "LSEQDFVSVFGITRGQFAALWGWKQLQMKKEKGLF", "abundance fitness": "-0.617 ± 0.12"}, {"variant": "LSEQDFVSVFGITRGQFAALSGWKQLQMKKEKGLF", "abundance fitness": "-0.225 ± 0.079"}, {"variant": "LSEQDFVSVFGITRGQFAALEGWKQLQMKKEKGLF", "abundance fitness": "-0.246 ± 0.057"}, {"variant": "LSEQDFVSVFGITRGQFAALMGWKQLQMKKEKGLF", "abundance fitness": "-0.64 ± 0.16"}, {"variant": "LSEQDFVSVFGITRGQFAALDGWKQLQMKKEKGLF", "abundance fitness": "-0.54 ± 0.11"}, {"variant": "LSEQDFVSVFGITRGQFAALNGWKQLQMKKEKGLF", "abundance fitness": "-0.51 ± 0.23"}, {"variant": "LSEQDFVSVFGITRGQFAALHGWKQLQMKKEKGLF", "abundance fitness": "-0.534 ± 0.085"}, {"variant": "LSEQDFVSVFGITRGQFAALFGWKQLQMKKEKGLF", "abundance fitness": "-0.696 ± 0.21"}, {"variant": "LSEQDFVSVFGITRGQFAALLGWKQLQMKKEKGLF", "abundance fitness": "-0.509 ± 0.064"}, {"variant": "LSEQDFVSVFGITRGQFAALIGWKQLQMKKEKGLF", "abundance fitness": "-0.536 ± 0.15"}, {"variant": "LSEQDFVSVFGITRGQFAALRGWKQLQMKKEKGLF", "abundance fitness": "-0.614 ± 0.056"}, {"variant": "LSEQDFVSVFGITRGQFAALCGWKQLQMKKEKGLF", "abundance fitness": "-0.436 ± 0.11"}, {"variant": "LSEQDFVSVFGITRGQFAALGGWKQLQMKKEKGLF", "abundance fitness": "-0.32 ± 0.067"}, {"variant": "LSEQDFVSVFGITRGQFAALAGWKQLQMKKEKGLF", "abundance fitness": "-0.414 ± 0.061"}, {"variant": "LSEQDFVSVFGITRGQFAALQGWKQLQMKKEKGLF", "abundance fitness": "-0.271 ± 0.17"}, {"variant": "LSEQDFVSVFGITRGQFAALYGWKQLQMKKEKGLF", "abundance fitness": "-0.668 ± 0.11"}, {"variant": "LSEQDFVSVFGITRGQFAAVPGWKQLQMKKEKGLF", "abundance fitness": "-0.753 ± 0.11"}, {"variant": "LSEQDFVSVFGITRGQFAAWPGWKQLQMKKEKGLF", "abundance fitness": "-0.91 ± 0.16"}, {"variant": "LSEQDFVSVFGITRGQFAAYPGWKQLQMKKEKGLF", "abundance fitness": "-0.106 ± 0.19"}, {"variant": "LSEQDFVSVFGITRGQFAALPGKKQLQMKKEKGLF", "abundance fitness": "-0.042 ± 0.077"}, {"variant": "LSEQDFVSVFGITRGQFAALPGCKQLQMKKEKGLF", "abundance fitness": "-0.235 ± 0.11"}, {"variant": "LSEQDFVSVFGITRGQFAALPGPKQLQMKKEKGLF", "abundance fitness": "-0.188 ± 0.065"}, {"variant": "LSEQDFVSVFGITRGQFAALPGLKQLQMKKEKGLF", "abundance fitness": "-0.233 ± 0.064"}, {"variant": "LSEQDFVSVFGITRGQFAALPGTKQLQMKKEKGLF", "abundance fitness": "-0.228 ± 0.067"}, {"variant": "LSEQDFVSVFGITRGQFAALPGQKQLQMKKEKGLF", "abundance fitness": "-0.213 ± 0.093"}, {"variant": "LSEQDFVSVFGITRGQFAALPGYKQLQMKKEKGLF", "abundance fitness": "-0.211 ± 0.14"}, {"variant": "LSEQDFVSVFGITRGQFAALPGNKQLQMKKEKGLF", "abundance fitness": "-0.319 ± 0.09"}, {"variant": "LSEQDFVSVFGITRGQFAALPGHKQLQMKKEKGLF", "abundance fitness": "-0.101 ± 0.086"}, {"variant": "LSEQDFVSVFGITRGQFAALPGAKQLQMKKEKGLF", "abundance fitness": "-0.134 ± 0.062"}, {"variant": "LSEQDFVSVFGITRGQFAALPGDKQLQMKKEKGLF", "abundance fitness": "0.005 ± 0.098"}, {"variant": "LSEQDFVSVFGITRGQFAALPGRKQLQMKKEKGLF", "abundance fitness": "-0.202 ± 0.058"}, {"variant": "LSEQDFVSVFGITRGQFAALPGIKQLQMKKEKGLF", "abundance fitness": "-0.284 ± 0.1"}, {"variant": "LSEQDFVSVFGITRGQFAALPGVKQLQMKKEKGLF", "abundance fitness": "-0.11 ± 0.078"}, {"variant": "LSEQDFVSVFGITRGQFAALPGSKQLQMKKEKGLF", "abundance fitness": "-0.092 ± 0.061"}, {"variant": "LSEQDFVSVFGITRGQFAALPGGKQLQMKKEKGLF", "abundance fitness": "-0.238 ± 0.056"}, {"variant": "LSEQDFVSVFGITRGQFAALPGMKQLQMKKEKGLF", "abundance fitness": "-0.108 ± 0.14"}, {"variant": "LSEQDFVSVFGITRGQFAALPGEKQLQMKKEKGLF", "abundance fitness": "0.081 ± 0.063"}, {"variant": "LSEQDFVSVFGITRGQFAALPGFKQLQMKKEKGLF", "abundance fitness": "-0.22 ± 0.19"}]}]}
